The text below walks through data of patent US20200055913A1 (University of California, published 2020).

Assay [1] deals with T1, human TLR4 on human PBMC (CD14+CD11b+ monocytes) (human, UniProt O00206 24-839).
T1 construct: whole, on cells
The assay can be described thus: competitive hRetn/LPS binding assay on human PBMC, flow cytometry. How it is done:
With reference to FIG. 5J, the functional ability of the hRetn N-peptide to block LPS binding and function was tested. The binding experiments were performed on ice to rule out effects of LPS-induced TLR4 endocytosis, which would have added complexity for interpretation of the data. Pre-incubation of human PBMC with the hRetn N-peptide or full-length hRetn inhibited LPS binding to CD14+CD11 b+ monocytes. […] An additional formulation of human resistin fused to the humanFc Ig fragment was also effective at inhibiting proinflammatory cytokines and promoting IL-10 expression in primary macrophage cultures (FIG. 7C).
Human PBMCs. Human buffy coat was purchased from Zen-bio. Buffy coat was overlaid on top of Histopaque-1077 and spun at 700g at 25° C. with no brake and PBMCs were recovered from the interphase. PBMCs were plated in 96-well plates and stimulated with mammalian-derived human resistin (1 μg/mL, LifeSpan Biosciences) or hRetn N-peptide (1 μg/mL). After 24 hours, ultrapure LPS (100 ng/mL, Invivogen) was added and supernatants recovered for ELISA at 24 hours. Where indicated, cells were incubated for 4 hours with STAT3 (5, 15-DPP, 50 μM) or TBK1 (BX-795, 1 μM) inhibitors prior to hRetn treatment. For the hRetn competitive binding assay, 1×10^6 cells were incubated with recombinant hRetn (0.5 μg), washed in PBS then incubated with 0.5 μg LPS-biotin (incubations were 30 minutes on ice). […]
In general terms: Flow cytometry measures light scatter and fluorescence of single cells or particles in a stream.

Assay [2] deals with T2, his-human CAP1 (cyclic adenylate associated protein 1) (human, UniProt Q01518 1-475, limits assumed).
T2 construct: Proposed receptor of hRetn, tested in the pull-down; also called his-CAP1; His-CAP1; not shown: His tag
T2 sequence (Q01518 whole entry): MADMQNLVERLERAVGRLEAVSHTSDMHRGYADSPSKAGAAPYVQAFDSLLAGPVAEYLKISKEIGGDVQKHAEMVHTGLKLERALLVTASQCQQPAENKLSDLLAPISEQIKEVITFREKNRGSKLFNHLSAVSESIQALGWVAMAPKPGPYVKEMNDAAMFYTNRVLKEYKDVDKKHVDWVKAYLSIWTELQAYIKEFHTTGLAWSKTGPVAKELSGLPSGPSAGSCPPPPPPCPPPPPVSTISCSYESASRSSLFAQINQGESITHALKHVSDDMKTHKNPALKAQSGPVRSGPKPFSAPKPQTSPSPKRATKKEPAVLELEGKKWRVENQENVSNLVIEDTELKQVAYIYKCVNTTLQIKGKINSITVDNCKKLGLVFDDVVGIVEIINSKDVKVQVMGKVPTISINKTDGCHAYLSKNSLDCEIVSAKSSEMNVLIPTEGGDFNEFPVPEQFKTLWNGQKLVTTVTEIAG
The assay can be described thus: pull-down on nickel-NTA agarose beads, anti-hRetn Western blot. The method, then:
(§1) Given that there are no publicly available CAP1 deficient mice, a direct protein-protein interaction of hRetn to TLR4 or CAP1 was investigated as an alternative to cell binding assays. A pull-down assay was performed utilizing recombinant hRetn with histidine (his)-tagged human TLR4, his-human CAP1 or his-maltose binding protein (MBP) as a negative control (FIG. 4G). In the pull-down elution, Western blot using anti-his antibody confirmed that his-MBP, his-TLR4 and his-CAP1 are all pulled down by the nickel-NTA agarose beads. In addition, when blotting the elution fraction with anti-hRetn antibody, hRetn was only present in the elution with his-TLR4, not his-CAP1 or his-MBP. To ensure that this interaction was not due to low-level LPS contamination, this pull-down assay was also performed with mammalian cell-derived hRetn. Similar to E. coli-derived hRetn, mammalian-derived hRetn is only detected when pulled down with his-TLR4, not his-CAP1 or his-MBP.
(§2) Pull-down Assay. […] His-MBP, His-TLR4 and His-CAP1 were detected by anti-His antibody (Abcam), and hRetn was detected by anti-hRetn antibody (donated by Mitchell Lazar) by Western Blot. […]

For assay [3], the target named is his-maltose binding protein (MBP) (UniProt P0AEX9 27-396 = MBP). The assay is described as above. The method, then: as §1, §2

T1 sequence (O00206 24-839): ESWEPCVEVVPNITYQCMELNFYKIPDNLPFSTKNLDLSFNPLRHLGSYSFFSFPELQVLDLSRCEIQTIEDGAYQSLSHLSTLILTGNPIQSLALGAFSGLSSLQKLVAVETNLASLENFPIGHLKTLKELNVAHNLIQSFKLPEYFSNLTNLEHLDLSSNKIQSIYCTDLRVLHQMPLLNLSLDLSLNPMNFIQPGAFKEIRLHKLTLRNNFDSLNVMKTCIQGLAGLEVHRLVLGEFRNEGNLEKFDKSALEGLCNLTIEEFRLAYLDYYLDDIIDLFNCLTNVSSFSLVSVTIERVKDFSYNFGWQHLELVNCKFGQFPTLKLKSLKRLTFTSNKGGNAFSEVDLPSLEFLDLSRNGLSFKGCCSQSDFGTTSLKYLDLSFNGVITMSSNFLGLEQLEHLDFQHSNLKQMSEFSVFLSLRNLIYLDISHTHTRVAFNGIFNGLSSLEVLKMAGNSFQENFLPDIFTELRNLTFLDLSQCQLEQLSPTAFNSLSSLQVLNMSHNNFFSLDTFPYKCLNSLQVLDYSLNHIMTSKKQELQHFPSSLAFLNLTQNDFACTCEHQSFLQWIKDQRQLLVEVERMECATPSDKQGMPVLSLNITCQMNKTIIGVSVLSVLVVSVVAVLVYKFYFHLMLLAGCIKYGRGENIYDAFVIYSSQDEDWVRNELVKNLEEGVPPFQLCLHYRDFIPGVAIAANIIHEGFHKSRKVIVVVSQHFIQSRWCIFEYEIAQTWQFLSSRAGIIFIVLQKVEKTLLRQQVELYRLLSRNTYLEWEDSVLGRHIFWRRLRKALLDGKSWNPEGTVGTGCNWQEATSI

B1: mammalian cell-derived human resistin (hRetn), 293T cell-derived (LifeSpan Biosciences) (ligand)
chain: KTLCSMEEAINERIQEVAGSLIFRAISSIGLECQSVTSRGDLATCPRGFAVTGCTCGSACGSWDVRAETTCHCQCAGMDWTGARCCRVQP
notes: Bought protein (LifeSpan Biosciences); also called mammalian-derived hRetn; 293T derived hRetn
On to B1, for which the binding result in assay [1] is given as “binds”.

B2: recombinant human resistin (hRetn), E. coli-derived (Peprotech) (ligand)
chain: SSKTLCSMEEAINERIQEVAGSLIFRAISSIGLECQSVTSRGDLATCPRGFAVTGCTCGSACGSWDVRAETTCHCQCAGMDWTGARCCRVQP
notes: Bought protein (Peprotech), made in bacteria; also called recombinant hResistin; E. coli-derived hRetn
On to B2, for which the binding result in assay [2] and in assay [3] was “no binding” throughout.
